The chains are these.
B1: Hairpin Ribozyme (parent)
chain: GUCCUCUUUCACGUGCGCGUGAAAGAGAGAAGUGAACCAGAGAAACACACGUUGUGGUAUAUUACCUGGUA

The values below come from the RNAGym collection of RNA variant scans (doi:10.7554/elife.80360).

Variants of B1 are the subject of the series. In words: self-cleavage, relative activity (ratio to wild type); higher = more cleavage; co-transcriptional.
Turning to C12G U14A, the self-cleavage was found to be 0.629.

Regarding C12G U14G, the self-cleavage is 0.684.

As to G13C U58G, the self-cleavage came out at 0.398.

Consider C12G U33G, for which the self-cleavage turned out to be 0.0897.

Turning to C12G U33C, the self-cleavage is 0.246.

As for C12G C65A, the self-cleavage worked out at 0.829.

Regarding G13U C38A, the self-cleavage was determined as 0.188.

G13U C38U: the self-cleavage came to 0.231.

As for C12U G13A, the self-cleavage was 0.72.

Regarding G13U U20G, the self-cleavage is 0.815.

In the case of G13A A24C, the self-cleavage was determined as 0.76.

Regarding G13A A24G, the self-cleavage was determined as 0.69.

With G13A U58C, the self-cleavage came to 0.817.

In the case of G13C U60C, the self-cleavage is 0.912.

For the variant C12G U70G, the self-cleavage came to 0.615.

Regarding C12U U63C, the self-cleavage was 0.0427.

Take G13U G57A: the self-cleavage was determined as 0.123.

U14A G57A: the self-cleavage worked out at 0.139.

Turning to C12U C37U, the self-cleavage was determined as 0.504.

Take U14A U60G: the self-cleavage came to 0.614.

As to G13U G32U, the self-cleavage came out at 0.157.

For the variant G13A G42C, the self-cleavage amounted to 0.302.

As to G13A G42U, the self-cleavage worked out at 0.234.

As to U14A A61G, the self-cleavage is 0.101.

Turning to U14A A61U, the self-cleavage came to 0.266.

In the case of G13C U52A, the self-cleavage amounted to 0.658.

Take C12U G32C: the self-cleavage came to 0.134.

For G13U G25U, the self-cleavage was determined as 0.527.

On to G13U G25A, for which the self-cleavage stood at 0.559.

With G13A G68C, the self-cleavage is 0.248.

G13A G68U: the self-cleavage was 0.218.

For C12U G34A, the self-cleavage came out at 1.19.

Take C12U G34C: the self-cleavage is 1.14.

With U14A A43G, the self-cleavage amounted to 0.147.

Turning to C12U C16A, the self-cleavage was 0.735.

Consider C12U C16G, for which the self-cleavage is 0.78.

On to G13C C16A, for which the self-cleavage stood at 0.597.

G13A G19A: the self-cleavage came out at 0.806.

As to G13U G34C, the self-cleavage was 0.998.

In the case of G13U G34A, the self-cleavage stood at 1.1.

G13U G34U: the self-cleavage came to 1.12.

For U14A U53A, the self-cleavage was 1.12.

As to G13A A64G, the self-cleavage is 0.526.

As to U14A U63G, the self-cleavage was found to be 0.0901.

For G13U G21U, the self-cleavage is 0.53.

Turning to C12G U52C, the self-cleavage stood at 0.899.

Regarding G13U G68A, the self-cleavage is 0.207.

Regarding G13C G42C, the self-cleavage was 0.3.

Regarding G13C G42U, the self-cleavage is 0.201.

As to U14A G21A, the self-cleavage stood at 0.936.

On to U14A G21U, for which the self-cleavage stood at 0.795.

With G13A U20A, the self-cleavage amounted to 0.716.

In the case of G13A U20G, the self-cleavage is 0.723.

As to G13C G57A, the self-cleavage came out at 0.215.

Turning to G13C G57C, the self-cleavage turned out to be 0.125.

G13A C38U: the self-cleavage worked out at 0.396.

Regarding G13U G40U, the self-cleavage came to 0.153.

In the case of G13U G40C, the self-cleavage came out at 0.122.

On to G13C G51A, for which the self-cleavage is 0.521.

Consider U14A A24G, for which the self-cleavage came out at 0.938.

Consider G13A A43C, for which the self-cleavage turned out to be 0.119.

On to C12U G17A, for which the self-cleavage came to 0.91.

In the case of C12U G17C, the self-cleavage was 0.578.

Consider G13C U14C, for which the self-cleavage came out at 0.583.

With C12G C66G, the self-cleavage was 0.26.

Regarding C12G C66U, the self-cleavage was found to be 0.369.

Take G13C A36C: the self-cleavage was 0.304.

On to G13C A49C, for which the self-cleavage was determined as 0.115.

For G13C A49G, the self-cleavage stood at 0.424.

In the case of G13C A49U, the self-cleavage turned out to be 0.199.

Consider U14A A26G, for which the self-cleavage was determined as 0.575.

Take G13U C65G: the self-cleavage turned out to be 0.193.

Take G13U C65U: the self-cleavage amounted to 0.301.

Take G13U C46U: the self-cleavage amounted to 0.137.

As to G13U C46G, the self-cleavage came out at 0.121.

For C12G G21U, the self-cleavage was found to be 0.663.

In the case of G13U A36U, the self-cleavage is 0.47.

Turning to U14A C50G, the self-cleavage was 0.279.

Take G13C U67A: the self-cleavage was 0.189.

For the variant G13A U62A, the self-cleavage amounted to 0.163.

Regarding G13C G27A, the self-cleavage stood at 0.314.

For the variant G13A G17U, the self-cleavage stood at 0.656.

For the variant C12U C18A, the self-cleavage came to 1.01.

On to C12G C46U, for which the self-cleavage was 0.191.

U14A C65A: the self-cleavage worked out at 0.958.

Turning to G13U G69A, the self-cleavage came out at 0.312.

In the case of G13U A22G, the self-cleavage stood at 0.659.

For the variant G13A U70A, the self-cleavage is 0.735.

Regarding G13A U70G, the self-cleavage came out at 0.629.

For the variant G13C C46G, the self-cleavage came out at 0.164.

Consider C12U G25C, for which the self-cleavage was 0.511.

Turning to C12U G25U, the self-cleavage was found to be 0.52.

As for C12U G27A, the self-cleavage amounted to 0.328.

As for G13U A30U, the self-cleavage stood at 0.164.

With C12U U58A, the self-cleavage turned out to be 0.597.

Regarding C12U U58G, the self-cleavage is 0.584.

As to C12G U55A, the self-cleavage was found to be 0.25.

Regarding C12G C18U, the self-cleavage turned out to be 0.889.

In the case of C12G C18A, the self-cleavage stood at 0.926.

With C12G C18G, the self-cleavage was determined as 0.727.

U14A U70G: the self-cleavage came to 0.714.

U14A U70C: the self-cleavage came out at 1.01.

In the case of G13U C66U, the self-cleavage worked out at 0.502.

With C12G C48A, the self-cleavage amounted to 0.128.

For U14A A44G, the self-cleavage was determined as 0.189.

Consider U14A A44C, for which the self-cleavage was found to be 0.14.

U14C A22C: the self-cleavage was 0.832.

As to U14C A22U, the self-cleavage is 1.06.

As for C12U C50G, the self-cleavage stood at 0.231.

In the case of U14A G69A, the self-cleavage is 0.219.

For C12U A64C, the self-cleavage amounted to 0.148.

For the variant G13U U14G, the self-cleavage stood at 0.729.

As for G13U U14A, the self-cleavage was 0.88.

In the case of G13A C37G, the self-cleavage is 0.174.

In the case of G13A C37U, the self-cleavage was determined as 0.637.

With U14A C18G, the self-cleavage is 0.636.

U14A C18A: the self-cleavage came to 0.888.

Turning to U14A U52C, the self-cleavage stood at 0.788.

On to U14A U52G, for which the self-cleavage was found to be 0.494.

For the variant C12G G68U, the self-cleavage is 0.193.

Take C12G G57U: the self-cleavage is 0.322.

U14C A28C: the self-cleavage stood at 0.565.

As to G13C G19A, the self-cleavage was 0.753.

With G13C G19C, the self-cleavage was 0.58.

As for G13U U70C, the self-cleavage worked out at 0.784.

As for G13U U70G, the self-cleavage came to 0.78.

In the case of G13A G34U, the self-cleavage was 1.22.

Take G13A G34A: the self-cleavage was 1.19.

Turning to C12G G34U, the self-cleavage turned out to be 1.16.

As to C12G G34A, the self-cleavage amounted to 1.03.

Turning to G13A G56A, the self-cleavage amounted to 0.188.

Take G13C A30C: the self-cleavage came to 0.112.

In the case of U14A U33A, the self-cleavage worked out at 0.137.

Consider U14A U33G, for which the self-cleavage worked out at 0.207.

As to U14A U33C, the self-cleavage was determined as 0.153.

Turning to G13C G54U, the self-cleavage is 0.532.

In the case of C12G G25U, the self-cleavage was 0.472.

Regarding G13C G21C, the self-cleavage was 0.587.

In the case of C12U A47C, the self-cleavage stood at 0.221.

For G13A C66G, the self-cleavage was 0.16.

As to C12G C50U, the self-cleavage came to 0.291.

Take G13U A28C: the self-cleavage worked out at 0.34.

As to U14A A28U, the self-cleavage was found to be 0.574.

For G13U U53G, the self-cleavage stood at 0.716.

Take U14C A23G: the self-cleavage turned out to be 0.841.

As to G13C A61C, the self-cleavage is 0.155.

As to G13C U55G, the self-cleavage worked out at 0.107.

As for G13C U55C, the self-cleavage was 0.0845.

For the variant G13A A49C, the self-cleavage was found to be 0.102.

Regarding U14A G29C, the self-cleavage worked out at 0.168.

Consider U14A G29U, for which the self-cleavage was 0.206.

G13U A43C: the self-cleavage amounted to 0.147.

Take U14A C38U: the self-cleavage is 0.478.

As for G13U A59G, the self-cleavage turned out to be 0.0932.

Regarding G13U A61C, the self-cleavage was 0.173.

For the variant G13U A61G, the self-cleavage turned out to be 0.147.

With G13U A35C, the self-cleavage stood at 0.876.

As for G13U A35G, the self-cleavage is 0.709.

For G13U A45C, the self-cleavage is 0.141.

With U14A C37A, the self-cleavage was 0.378.

In the case of C12U G57U, the self-cleavage worked out at 0.262.

On to C12U G57A, for which the self-cleavage amounted to 0.215.

With G13C G56C, the self-cleavage amounted to 0.17.

Regarding G13C G56U, the self-cleavage was determined as 0.202.

On to G13C G68U, for which the self-cleavage stood at 0.193.

Turning to C12U G21U, the self-cleavage is 0.672.

Consider C12U G21C, for which the self-cleavage stood at 0.651.
